Data from US20210230266A1 (SINGAPORE HEALTH SERVICES PTE, published 2021).

T1: Human IL-11 (human, UniProt P20809 22-199)
T1 construct: Recombinant human IL-11 (GenScript Cat. No. Z03108-1) or IL-11 secreted by human cells; the mature form is said to have 178 residues; also called recombinant human IL-11; endogenously produced IL-11
T1 sequence: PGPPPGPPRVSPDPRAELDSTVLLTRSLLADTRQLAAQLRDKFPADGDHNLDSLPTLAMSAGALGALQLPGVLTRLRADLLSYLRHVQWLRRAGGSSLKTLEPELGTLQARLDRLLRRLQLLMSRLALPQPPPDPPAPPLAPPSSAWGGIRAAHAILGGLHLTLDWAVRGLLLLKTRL

T2: Mouse IL-11 (mouse, UniProt P47873 22-199, limits assumed)
T2 construct: also called murine IL-11; recombinant murine IL-11
T2 sequence (looked up): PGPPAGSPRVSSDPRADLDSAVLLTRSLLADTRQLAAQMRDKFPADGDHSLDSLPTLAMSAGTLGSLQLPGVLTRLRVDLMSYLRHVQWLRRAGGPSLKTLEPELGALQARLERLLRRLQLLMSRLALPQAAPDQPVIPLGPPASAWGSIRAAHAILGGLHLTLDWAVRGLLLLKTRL


Legend:
Human IL-11 [1] = molecular target: T1, Human IL-11; assay: ELISA
Description: (§1) The soluble scFv were produced by recombinant expression in E. coli, and analysed for their ability to bind to human IL-11 and murine IL-11 by ELISA. Briefly, the respective antigen was coated to wells of an ELISA plate, the cell culture supernatant containing the respective scFv was added at a 1:2 dilution, and binding was detected.

Mouse IL-11 = molecular target: T2, Mouse IL-11; assay: ELISA
Description: as §1

Human IL-11 [2] = molecular target: T1, Human IL-11; assay: cell-based or functional assay
Human IL-11 [3] = molecular target: T1, Human IL-11; assay: ELISA on coated recombinant human IL-11 (100 ng/well), scFv-Fc
Description: The light chain shuffled anti-IL-11 antibodies were analysed to determine the EC50 for binding to human IL-11 by ELISA according to standard methods. Briefly, wells of microtiter plates were coated with recombinant human IL-11 (100 ng/well), scFv-Fc comprising the VH and VL domains of the clones were added in a dilution series and antibody binding was detected using a polyclonal antibody detection system.

| Binder | hIL11 - average signal (Human IL-11 [1]) | mIL11 - average signal (Mouse IL-11) | MMP2 production, Experiment 1 (human atrial fibroblasts + TGFB1) (Human IL-11 [2]) [ng/mL] | MMP2 production, Experiment 2 (human atrial fibroblasts + TGFB1) (Human IL-11 [2]) [ng/mL] | EC50 (Human IL-11 [3]) [µg/mL] |
| --- | --- | --- | --- | --- | --- |
| YU100-A10 (antibody) EVQLVESGGGVVQPGRSLRLSCAASGFTFSSYGMHWVRQAPGKGLEWVAVISYDGSNKYYADSVKGRFTISRDNSKNTLYLQMNSLRAEDTAVYYCAKIGATDPLDYWGQGTLVTVSSGSASAPKLEEGEFSEARVLPVLTQPASVSGSPGQSITISCTGTSSDVGAYNYVSWYQQHPGKAPELMIYDVSNRPSGVSNRFSGSKSGNTASLTISGLQPEDEADYYCSSFTTSIAWVFGGGTKLTVL | 0.443 | 0.54 | 52.1 | 50.1 | 0.023 |
| YU100-A12 (antibody) QVQLVESGGGVVQPGRSLRLSCAASGFTFSSYGMHWVRQAPGKGLEWVAVISYDGSNKYYADSVKGRFTISRDNSKNTLYLQMNSLRAEDTAVYYCAKIGATDPLDYWGQGTLVTVSSGSASAPKLEEGEFSEARVLPVLTQPRSVSGSPGQSVTISCTGTSSDVGGYNYVSWYQQHPGKAPKLMIYDVSKRPSGVPDRFSGSKSGDTASLTISGLQAEDEADYYCSSYAGSYTWVFGGGTKLTVL | 0.32 | 0.388 | 59.5 | 50.4 | 0.023 |
| YU100-B07 (antibody) QVQLVESGGGVVQPGRSLRLSCAASGFTFSSYGMHWVRQAPGKGLEWVAVISYDGSNKYYADSVKGRFTISRDNSKNTLYLQMNSLRAEDTAVYYCAKIGATDPLDYWGQGTLVTVSSGSASAPKLEEGEFSEARVQSALTQPRSVSGSPGQSVTMSCTGTSRDVGGYNYVSWYQHHPGKAPKLMIYDVSKRPSGVPDRFSGSKSGNTASLTISELQAEDEADYYCCSYAGSYTWVFGGGTKLTVL | 0.167 | 0.354 | 55.9 | 47.4 | 0.023 |
| YU100-B06 (antibody) QVQLVESGGGVVQPGRSLRLSCAASGFTFSSYGMHWVRQAPGKGLEWVAVISYDGSNKYYADSVKSRFTISRDNSKNTLYLQMNSLRAEDTAVYYCAKIGATDPLDYWGQGTLVTVSSGSASAPKLEEGEFSEARVQSALTQPASVSGSPGQSITISCTGTSSDVGGYNYVSWYQQHPGKAPKLMIYDVSKRPSGVPDRFSGSKSGNTASLTISGLQAEDEADYYCNSYAGSYTWVFGGGTKLTVL | 0.209 | 0.404 | 47.6 | 49.6 | 0.033 |
| YU112-G06 (antibody) QVQLQESGGGVVQPGRSLRLSCAASGFTFSSYGMHWVRQAPGKGLEWVAVISYDGSNKYYADSVKGRFTISRDNSKNTLYLQMNSLRAEDTAVYYCAKIGATDPLDYWGQGTLVTVSSGSASAPKLEEGEFSEARVQSALTQPRSVSGSPGQSVTISCTGTISDVGGYNYVSWYQQHPGKAPKLMIYDVTKRRSGVPDRFSGSKSGNTASLTISGLQAEDEAGYYCSSYAGGYTWVFGGGTELTVL | 0.664 | 0.762 | 55 | 47.8 | 0.017 |
| YU100-A11 (antibody) EVQLQQSGGGVVQPGRSLRLSCAASGFTFSSYGMHWVRQAPGKGLEWVAVISYDGSNKYYADSVKGRFTISRDNSKNTLYLQMNSLRAEDTAVYYCAKIGATDPLDYWGQGTLVTVSSGSASAPKLEEGEFSEARVQSALTQPRSVSGSPGQSVTISCTGTSSDVGGYNYVSWYQQHPGKAPKLMIYDVSKRPSGVPDRFSGSKSGNTASLTISGLQAEDEADYYCCSYAGSYTWVFGGGTKLTVL | 0.333 | 0.372 | 51.6 | 45.7 | 0.02 |
| YU100-B03 (antibody) QVQLVQSGGGVVQPGRSLRLSCAASGFTFSSYGMHWVRQAPGKGLEWVAVISYDGSNKYYADSVKGRFTISRDNSKNTLYLQMNSLRAEDTAVYYCAKIGATDPLDYWGQGTLVTVSSGSASAPKLEEGEFSEARVQSVLTQPRSVSGSPGRSVTISCTGTSSDVGGYNYVSWYQQHPGKAPKLTLYDVVKRPSGVPDRYSGSKSGNTASLTISGLQAEDEADYYCCSYAGGYTWVFGGGTKVTVV | 0.227 | 0.321 | 47.3 | 46.8 | 0.025 |
| YU100-B01 (antibody) QVQLVQSGGGVVQPGRSLRLSCAASGFTFSSYGMHWVRQAPGKGLEWVAVISYDGSNKYYADSVKGRFTISRDNSKNTLYLQMNSLRAEDTAVYYCAKIGATDPLDYWGQGTLVTVSSGSASAPKLEEGEFSEARVQSALTQPRSVSGSPGQSVTISCTGTNTDVGAYNYVSWYQQYPGKAPKLIIYDVSKRPSGVPDRFSGSKSGNTASLTISGLQAEDEADYYCCSYAGSYSWVFGGGTKLTVL | 0.187 | 0.175 | 52.5 | 40 | 0.023 |
| YU100-B08 (antibody) EVQLVQSGGGVVQPGRSLRLSCAASGFTFSSYGMHWVRQAPGKGLEWVAVISYDGSNKYYADSVKGRFTISRDNSKNTLYLQMNSLRAEDTAVYYCAKIGATDPLDYWGQGTLVTVSSGSASAPKLEEGEFSEARVQSALTQPASVSGSPGQSITISCTGTSSDVGGYNYVSWYQQHPGKVPRLLIYDVSNRPSGVSTRFSGSKSGNTASLTISGLQGEDEAEYYCSSFTSSTTWVFGGGTKLTVL | 0.209 | 0.423 | 55.3 | 40.6 | 0.021 |
| YU112-H01 (antibody) QVQLVESGGGVVQPGRSLRLSCAASGFTFGSYGMHWVRQAPGKGLEWVAVISYDGSNKYYADSVKGRFTISRDNSKNTLYLQMNSLRAEDTAVYYCAKGSYYFDYWGQGTLVTVSSGSASAPKLEEGEFSEARVETTLTQSPGTLSLSPGERATLSCRASQSVSSSYLAWYQQKPGQAPRLLIYGASSRATGIPDRFSGSGSGTDFTLTISSLQPDDFATYYCQQSYSTPTWTFGQGTKVEIK | 1.23 | 1.18 | 51.9 | 47.7 | 0.02 |
| YU112-H02 (antibody) QVQLVESGGGVVQPGRSLRLSCAASGFTFSSYGMHWVRQAPGKGLEWVAVISYDGSNKYYADSVKGRFTISRDNSKNTLYLQMNSLRAEDTAVYYCAKLSGPNGVDYWGQGTLVTVSSGSASAPKLEEGEFSEARVQPVLTQPRSVSGSPGQSVTISCTGTSSDVGGYNYVSWYQQHPGKAPKVMIYDVSKRPSGVPDRFSGSKSGNTASLTISGLQAEDEADYYCCSYAGSYTWVFGGGTKLTVL | 0.606 | 0.785 | 65.3 | 58 | 0.02 |
